The source of these data is patent publication US20230266324A1 (Hoffmann-La Roche, published 2023).

In the assay the target is T1, PD-L1 (human, UniProt Q9NZQ7 19-290).
T1 construct: whole, on cells; Endogenous PD-L1 on in vitro generated human DCs (iDCs, mDCs); also called B7-H1; B7-4
Nature of the assay: confocal imaging of co-localization on the surface of human mDCs.

T1 sequence (Q9NZQ7 19-290): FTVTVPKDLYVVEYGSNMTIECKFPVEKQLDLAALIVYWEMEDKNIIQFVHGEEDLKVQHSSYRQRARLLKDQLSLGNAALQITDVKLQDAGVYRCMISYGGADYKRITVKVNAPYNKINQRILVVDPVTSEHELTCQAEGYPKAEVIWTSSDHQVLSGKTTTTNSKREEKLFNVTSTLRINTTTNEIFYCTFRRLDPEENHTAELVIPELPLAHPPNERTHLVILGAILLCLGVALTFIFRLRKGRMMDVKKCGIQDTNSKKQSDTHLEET

B1: CD80 (ligand, human, UniProt P33681 35-288, looked up)
chain: VIHVTKEVKEVATLSCGHNVSVEELAQTRIYWQKEKKMVLTMMSGDMNIWPEYKNRTIFDITNNLSIVILALRPSDEGTYECVVLKYEKDAFKREHLAEVTLSVKADFPTPSISDFEIPTSNIRRIICSTSGGFPEPHLSWLENGEELNAINTTVSQDPETELYAVSSKLDFNMTTNHSFMCLIKYGHLRVNQTFNWNTTKQEHFPDNLLPSWAITLISVNGIFVICCLTYCFAPRCRERRRNERLRRESVRPV
notes: whole, on cells; Endogenous CD80 on human DCs, seen by confocal imaging; also called B7-1; B7.1
B1: the binding result is “binds”.
